Measured values taken from the supplement of paper PMC9233669.
Fewer inactive variants are shown than the library holds.

What was measured:
biotinyl-Phe-oxazolone = assay: self-aminoacylation, catalytic enhancement (BFO) (fold over background); higher = more active; k-Seq, kA / k0A0; sequences stand for … in GGGAAUGGAUCCACAUCUACGAAUUC…UUCACUGCAGACUUGACGAAGCUG
Method in brief: (§1)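 Each biotinyl-aminoacyl-oxazolone, at 2–1250 μM, was incubated with mutagenized RNA pools (0.43 μM) carrying a 21-nt variable region. The 50 μL reactions contained HEPES/NaCl/KCl/MgCl2/CaCl2 buffer with 5% acetonitrile at pH 6.9–7.0 and ran for 90 minutes at room temperature. After streptavidin capture, RNA was measured by qPCR in triplicate and by Illumina sequencing, and catalytic enhancement was calculated as median kA over the uncatalyzed rate from a pseudo-first-order fit of per-sequence fraction reacted.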

biotinyl-Ile-oxazolone = assay: self-aminoacylation, catalytic enhancement (BIO) (fold over background); higher = more active; k-Seq, kA / k0A0; sequences stand for … in GGGAAUGGAUCCACAUCUACGAAUUC…UUCACUGCAGACUUGACGAAGCUG
Method in brief: as §1

biotinyl-Met-oxazolone = assay: self-aminoacylation, catalytic enhancement (BMO) (fold over background); higher = more active; k-Seq, kA / k0A0; sequences stand for … in GGGAAUGGAUCCACAUCUACGAAUUC…UUCACUGCAGACUUGACGAAGCUG
Method in brief: as §1

biotinyl-Val-oxazolone = assay: self-aminoacylation, catalytic enhancement (BVO) (fold over background); higher = more active; k-Seq, kA / k0A0; sequences stand for … in GGGAAUGGAUCCACAUCUACGAAUUC…UUCACUGCAGACUUGACGAAGCUG
Method in brief: as §1

biotinyl-Leu-oxazolone = assay: self-aminoacylation, catalytic enhancement (BLO) (fold over background); higher = more active; k-Seq, kA / k0A0; sequences stand for … in GGGAAUGGAUCCACAUCUACGAAUUC…UUCACUGCAGACUUGACGAAGCUG
Method in brief: as §1

biotinyl-Trp-oxazolone = assay: self-aminoacylation, catalytic enhancement (BWO) (fold over background); higher = more active; k-Seq, kA / k0A0; sequences stand for … in GGGAAUGGAUCCACAUCUACGAAUUC…UUCACUGCAGACUUGACGAAGCUG
Method in brief: as §1

Sequence	self-aminoacylation (biotinyl-Phe-oxazolone)	self-aminoacylation (biotinyl-Ile-oxazolone)	self-aminoacylation (biotinyl-Met-oxazolone)	self-aminoacylation (biotinyl-Val-oxazolone)	self-aminoacylation (biotinyl-Leu-oxazolone)	self-aminoacylation (biotinyl-Trp-oxazolone)
CCACACUUCAAUCAAGCGGUC [Fam1B.1 aminoacylation ribozyme variant]	0.972	0.709	0.634	0.811	0.694	0.769
CCACACUUCAAUCAAUCCGUC [Fam1B.1 aminoacylation ribozyme variant]	0.663	0.655	0.641	0.823	0.61	0.611
CCACACUUCAAUCAAUUGGUC [Fam1B.1 aminoacylation ribozyme variant]	0.876	0.598	0.527	0.616	0.545	0.719
CCACACUUCAAUCAGUCGGUC [Fam1B.1 aminoacylation ribozyme variant]	0.869	0.963	0.815	0.796	0.723	0.687
CCACACUUCACGAAAUCGGUC [Fam1B.1 aminoacylation ribozyme variant]	0.814	0.987	1.07	1.09	1.16	1.02
CCACACUUCACGCAAUCGAUC [Fam1B.1 aminoacylation ribozyme variant]	0.676	0.568	0.55	0.606	0.514	0.618
CCACACUUCACGCGAUCGGUC [Fam1B.1 aminoacylation ribozyme variant]	6.79	1.46	1.48	2.17	1.84	2.37
CCACACUUCACGUAAUCGGUC [Fam1B.1 aminoacylation ribozyme variant]	0.967	0.892	0.822	0.914	0.733	0.591
CCACACUUCAGGCAAUCGUUC [Fam1B.1 aminoacylation ribozyme variant]	0.772	0.704	0.618	0.792	0.585	0.422
CCACACUUCAGGCUAUCGGUC [Fam1B.1 aminoacylation ribozyme variant]	0.514	1.33	1.1	1.33	1.23	1.39
CCACACUUCAGGUAAUCGGUC [Fam1B.1 aminoacylation ribozyme variant]	1.07	0.805	0.887	1.07	0.824	0.712
CCACACUUCAUACAAUCGGUC [Fam1B.1 aminoacylation ribozyme variant]	0.729	0.618	0.608	0.744	0.703	0.726
CCACACUUCAUGCAAGCGGUC [Fam1B.1 aminoacylation ribozyme variant]	0.633	1.08	0.854	0.835	1.01	0.681
CCACACUUCAUGCAAUCGGUG [Fam1B.1 aminoacylation ribozyme variant]	27	2.55	4.27	2.65	5.5	4.65
CCACACUUCCAGCAACCGGUC [Fam1B.1 aminoacylation ribozyme variant]	0.744	1.15	0.879	1.34	0.925	1.14
CCACACUUCCAGCAAUCGCUC [Fam1B.1 aminoacylation ribozyme variant]	1.22	1.69	1.54	1.83	1.35	1.59
CCACACUUCCAGCAAUGGGUC [Fam1B.1 aminoacylation ribozyme variant]	1.22	1.34	0.956	1.38	0.88	0.884
CCACACUUCGAGCAAUCGGUA [Fam1B.1 aminoacylation ribozyme variant]	0.573	0.715	0.716	1.06	0.849	1
CCACACUUCGAGCAAUCGGUG [Fam1B.1 aminoacylation ribozyme variant]	15.2	1.62	2.48	1.91	3.3	2.07
CCACACUUCGAGCAAUUGGUC [Fam1B.1 aminoacylation ribozyme variant]	0.518	0.79	0.721	0.956	0.747	0.375
CCACACUUCUAGCAAUCGGUG [Fam1B.1 aminoacylation ribozyme variant]	19.8	2.65	3.47	2.62	4.64	3.09
CCACACUUCUAGCAAUCGGUU [Fam1B.1 aminoacylation ribozyme variant]	1.17	1.34	0.978	1.36	1.13	1.12
CCACACUUCUAGCCAUCGGUC [Fam1B.1 aminoacylation ribozyme variant]	1.09	0.924	0.683	1.01	0.778	0.962
CCACACUUGAAGCAAUCCGUC [Fam1B.1 aminoacylation ribozyme variant]	0.745	1.02	0.993	1	0.905	0.76
CCACACUUGAAGCAAUCGGUA [Fam1B.1 aminoacylation ribozyme variant]	0.696	1.07	0.976	1.25	1.13	0.948
CCACACUUGAAGCAAUCGGUC [Fam1B.1 aminoacylation ribozyme variant]	0.778	0.836	0.782	0.926	0.735	0.805
